In paper PMC3115021, “Dynamics of Cdk1 Substrate Specificity during the Cell Cycle” (Molecular Cell, 2011):

B1: ORC2: purified yeast protein tested as Cdk1 substrate (protein, UniProt P32833 1-620, looked up)
Origin recognition complex …: MLNGEDFVEHNDILSSPAKSRNVTPKRVDPHGERQLRRIHSSKKNLLERISLVGNERKNTSPDPALKPKTPSKAPRKRGRPRKIQEELTDRIKKDEKDTISSKKKRKLDKDTSGNVNEESKTSNNKQVMEKTGIKEKREREKIQVATTTYEDNVTPQTDDNFVSNSPEPPEPATPSKKSLTTNHDFTSPLKQIIMNNLKEYKDSTSPGKLTLSRNFTPTPVPKNKKLYQTSETKSASSFLDTFEGYFDQRKIVRTNAKSRHTMSMAPDVTREEFSLVSNFFNENFQKRPRQKLFEIQKKMFPQYWFELTQGFSLLFYGVGSKRNFLEEFAIDYLSPKIAYSQLAYENELQQNKPVNSIPCLILNGYNPSCNYRDVFKEITDLLVPAELTRSETKYWGNHVILQIQKMIDFYKNQPLDIKLILVVHNLDGPSIRKNTFQTMLSFLSVIRQIAIVASTDHIYAPLLWDNMKAQNYNFVFHDISNFEPSTVESTFQDVMKMGKSDTSSGAEGAKYVLQSLTVNSKKMYKLLIETQMQNMGNLSANTGPKRGTQRTGVELKLFNHLCAADFIASNEIALRSMLREFIEHKMANITKNNSGMEIIWVPYTYAELEKLLKTVLNTL
B2: ORC6: purified yeast protein tested as Cdk1 substrate (protein, UniProt P38826 1-435, looked up)
Origin recognition complex …: MSMQQVQHCVAEVLRLDPQEKPDWSSGYLKKLTNATSILYNTSLNKVMLKQDEEVARCHICAYIASQKMNEKHMPDLCYYIDSIPLEPKKAKHLMNLFRQSLSNSSPMKQFAWTPSPKKNKRSPVKNGGRFTSSDPKELRNQLFGTPTKVRKSQNNDSFVIPELPPMQTNESPSITRRKLAFEEDEDEDEEEPGNDGLSLKSHSNKSITGTRNVDSDEYENHESDPTSEEEPLGVQESRSGRTKQNKAVGKPQSELKTAKALRKRGRIPNSLLVKKYCKMTTEEIIRLCNDFELPREVAYKIVDEYNINASRLVCPWQLVCGLVLNCTFIVFNERRRKDPRIDHFIVSKMCSLMLTSKVDDVIECVKLVKELIIGEKWFRDLQIRYDDFDGIRYDEIIFRKLGSMLQTTNILVTDDQYNIWKKRIEMDLALTEPL
B3: PLM2: purified yeast protein tested as Cdk1 substrate (protein, UniProt Q04383 1-521, looked up)
Protein PLM2: MSHLFPPSSPVAGKPLESPQKEPGKLANTSVLTLGRKRYNYELEEYPTPDPSSSIGRQSSPVKDITSRLNETKSALSSPSKQEKVLAGPIEIELDASDPSRLAIGRKKSVCNIILPCRKNISRQHAFISYAADRNEIKLECNGTNGLSVHLPYSMQLHLVKPFPTRNFYKLVAEEPLTSQNTKQSHGKTLQKNQNFISFVLAKGETVTFPYIQGSFINFTGVTVCLSLKKVAPYPGDGNNNFDEENSTETEDELCLLTTTSDDFSWQKETPSMKFVPVEHSPRTEQISKPLLIASPALVKNSPISYRTTPQTSFVINQPSTPKKLKRKSISLKNNTIQETPLPKDKIIGTLSASTRSGGINEEESFAAVAKKTKELSSTTAIVSPAQKRLKTSLNIIPEISRSLSERGIRFDDLVHVLCNHLAFSNLQQTPLSQLQNINSNTSQLSKDELKKVLETISCIGIIVREGKDASGKPLEDEYYYDVENDDSDERKILYNSLKGRSRLRSCRKKHKQYFWKRPTK
B4: PDS1: GST-tagged purified yeast protein tested as Cdk1 substrate (protein, UniProt P40316 1-373, looked up)
Securin: MMPANEDKENNIVYTGNESSGINFPQTPAHLLKRSHSNILKPPVRLDQLKRDANSNNGNTLKYIQGGKEVSPTKRLHTHAQQQGRLPLAAKDNNRSKSFIFPETSNQSKDADLPQLQNTLSIRKNDQLRKLSQISRSRSRANHNDLLSNSRKLQKYGSVLGYNALPKMKSLVLKDLADSGKNEESSDDDEGNEDSESKLGKKLQSALLKQDSSDGENELNGGLGLFNEQGGLQQLIKNSTKNEQKTKNDKSDKTDDYDIEIAPQRQEPLPYVPEGYSPFQQDDIEKLKTFNSPYKLDLEDEDDTPDKVDLLPLEQIDEEGEKDETECITRNQEEGAALPLLSKNFKEVAAVPTMELVYSEEGLDPEELEDLVT
modifications: GST tag
notes: GST-tagged purified yeast protein tested as Cdk1 substrate

The molecules below were run against T1, Clb3-Cdk1 (Saccharomyces cerevisiae, UniProt P00546+P24870) (assay: Quantitative phosphorylation assay of T33-Sic1ΔC constructs and recombinant substrates). Conditions: Table S2; purified protein substrate; relative values, not divided by [S].
T1 construct: We purified the four cyclin-Cdk1 complexes from yeast; made in house; host or cells: S. cerevisiae strain DOM0957 (gal-CLB3-TAP, sic1 deleted); Cks1 from bacteria
Format: biochemical
Protocol: (§1) For the quantitative phosphorylation assays of T33-Sic1ΔC constructs and recombinant substrates, substrate concentrations were kept in the range of 0.5–2 μM (in the linear [S] versus v0 range, several-fold below the estimated KM value), and initial velocity conditions were defined as an initial substrate turnover of up to 10% of the total turnover. For the steady-state peptide kinetics of the Histone peptide PKTPKKAKKL, a similar assay composition was used as for protein substrates, and phosphocellulose paper was used for the quantification of the phosphorylated substrate. […]
(§2) similar substrate specificity as the Cln2-Cdk1 version purified using a TAP-tag. N-terminally 6His-tagged recombinant T33-Sic1ΔC constructs and substrates were cloned into the pET28a vector and purified by standard cobalt affinity chromatography and elution with 200 mM imidazole. 6His-Fin1 was purified as described previously (Woodbury and Morgan, 2007). Substrates cloned into the pGEX-4T-1 were purified on glutathione agarose columns using 5 mM reduced glutathione for elution. Cks1 was purified as described previously (Reynard et al., 2000). The optimal working concentration for purified Cks1 was taken as 500 nM based on optimization performed for cyclin-Cdk1 preparations and T33-Sic1ΔC as a substrate.
(§3) For the quantitative phosphorylation assays of T33-Sic1ΔC constructs and recombinant substrates, substrate concentrations were kept in the range of 0.5-2 μM (in the linear [S] vs v0 range, several-fold below the estimated KM value), and the initial velocity conditions were defined as an initial substrate turnover ranging up to 10% of the total turnover. The latter was estimated by a long-term incubation with excess amounts of cyclin-Cdk1 and 32P-γ-ATP in the standard reaction mixture given below. About 1-10 nM of purified kinase complex was used, reaction aliquots were taken at two or more time points, and the reaction was stopped by SDS-PAGE sample buffer. The relative kcat/KM values for the substrates were calculated as the ratio of v0/[S], which was determined from at least two independent experiments. The basal composition of the assay mixture contained 50 mM Hepes, pH 7.4, 100 mM NaCl, 0.1% NP-40, 20 mM imidazole, 0.1 mg/ml 2HA peptide, 2% glycerol, 2 mM EGTA, 0.2 mg/ml BSA, […], and 500 μM ATP (with added 32P-γ-ATP (Perkin Elmer)).
(§4) About 1-10 nM of purified kinase complex was used, reaction aliquots were taken at two or more time points, and the reaction was stopped by SDS-PAGE sample buffer. For the steady-state peptide kinetics of the Histone peptide PKTPKKAKKL, a similar assay composition was used as for protein substrates and the standard phosphocellulose method was applied for the quantification of the phosphorylated substrate (Loog and Morgan, 2005). Synthetic peptides as competitor agents were used in 4 mM final concentrations. […]

T1 sequence (P00546 2-298 limits assumed): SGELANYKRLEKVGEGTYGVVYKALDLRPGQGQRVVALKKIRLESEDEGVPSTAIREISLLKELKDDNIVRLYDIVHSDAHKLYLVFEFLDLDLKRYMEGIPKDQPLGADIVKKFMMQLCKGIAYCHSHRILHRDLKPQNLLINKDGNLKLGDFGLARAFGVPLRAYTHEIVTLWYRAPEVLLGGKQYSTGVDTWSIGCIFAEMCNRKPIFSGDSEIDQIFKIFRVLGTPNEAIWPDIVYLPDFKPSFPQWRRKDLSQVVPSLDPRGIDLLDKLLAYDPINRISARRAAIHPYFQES
T1 sequence (P24870 whole entry partner): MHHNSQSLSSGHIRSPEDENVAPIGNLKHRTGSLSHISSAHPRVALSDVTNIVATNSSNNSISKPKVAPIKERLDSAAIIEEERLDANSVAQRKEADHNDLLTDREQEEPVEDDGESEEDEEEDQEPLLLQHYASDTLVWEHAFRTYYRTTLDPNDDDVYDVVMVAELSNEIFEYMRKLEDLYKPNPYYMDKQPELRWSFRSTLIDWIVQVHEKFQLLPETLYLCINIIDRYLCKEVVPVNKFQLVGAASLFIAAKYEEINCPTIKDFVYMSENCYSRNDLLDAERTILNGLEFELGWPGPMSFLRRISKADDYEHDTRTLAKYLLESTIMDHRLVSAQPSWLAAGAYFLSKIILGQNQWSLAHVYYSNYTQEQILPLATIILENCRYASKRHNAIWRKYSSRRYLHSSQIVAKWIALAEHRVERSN
T1 sequence (P20486 whole entry partner): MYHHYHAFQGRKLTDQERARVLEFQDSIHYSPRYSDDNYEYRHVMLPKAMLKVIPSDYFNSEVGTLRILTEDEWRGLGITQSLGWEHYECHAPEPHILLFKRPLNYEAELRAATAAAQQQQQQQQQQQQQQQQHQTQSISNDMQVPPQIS

Row | Molecule | kcat/KM, Clb3 [relative units]
1 | B1 | 0.132
2 | B2 | 0.018
3 | B3 | 9.051
4 | B4 | 0.015

What follows are molecules tested against T2, Cln2-Cdk1 (Saccharomyces cerevisiae, UniProt P00546+P20438) in the same assay as above. Conditions: Table S2; purified protein substrate; relative values, not divided by [S].
T2 construct: We purified the four cyclin-Cdk1 complexes from yeast; made in house; host or cells: S. cerevisiae strain DMY305 (galactose-induced); Cks1 from bacteria
Format: biochemical
Protocol: as §1, §2, §3, §4

T2 sequence (P00546 2-298 limits assumed): as the sequence (P00546 2-298 limits assumed) above
T2 sequence (P20438 whole entry partner): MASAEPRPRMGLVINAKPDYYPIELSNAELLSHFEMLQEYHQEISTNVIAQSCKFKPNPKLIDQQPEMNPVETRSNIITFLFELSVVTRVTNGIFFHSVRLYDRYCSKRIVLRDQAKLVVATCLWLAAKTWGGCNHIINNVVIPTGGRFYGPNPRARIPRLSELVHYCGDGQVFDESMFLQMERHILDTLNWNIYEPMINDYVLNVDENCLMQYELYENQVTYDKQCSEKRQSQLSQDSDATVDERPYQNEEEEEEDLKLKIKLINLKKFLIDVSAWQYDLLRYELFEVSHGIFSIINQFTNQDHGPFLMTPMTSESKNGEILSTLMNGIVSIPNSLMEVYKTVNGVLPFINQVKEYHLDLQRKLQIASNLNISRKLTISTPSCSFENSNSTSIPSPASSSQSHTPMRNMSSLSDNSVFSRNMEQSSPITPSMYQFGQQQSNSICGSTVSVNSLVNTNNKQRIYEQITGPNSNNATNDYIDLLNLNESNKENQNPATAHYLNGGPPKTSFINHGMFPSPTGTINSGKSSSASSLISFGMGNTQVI
T2 sequence (P20486 whole entry partner): as the sequence (P20486 whole entry partner) above

Row | Molecule | kcat/KM, Cln2 [relative units]
5 | B1 | 0.073
6 | B2 | 0.002
7 | B3 | 0.428
8 | B4 | 0.249

What follows are molecules tested against T3, Clb2-Cdk1 (Saccharomyces cerevisiae, UniProt P00546+P24869) in the same assay as above. Conditions: Table S2; purified protein substrate; relative values, not divided by [S].
T3 construct: We purified the four cyclin-Cdk1 complexes from yeast; made in house; host or cells: S. cerevisiae strain DOM0077 (gal-CLB2-TAP, sic1 deleted); Cks1 from bacteria
Format: biochemical
Protocol: as §1, §2, §3, §4

T3 sequence (P00546 2-298 limits assumed): as the sequence (P00546 2-298 limits assumed) above
T3 sequence (P24869 2-491 partner limits assumed): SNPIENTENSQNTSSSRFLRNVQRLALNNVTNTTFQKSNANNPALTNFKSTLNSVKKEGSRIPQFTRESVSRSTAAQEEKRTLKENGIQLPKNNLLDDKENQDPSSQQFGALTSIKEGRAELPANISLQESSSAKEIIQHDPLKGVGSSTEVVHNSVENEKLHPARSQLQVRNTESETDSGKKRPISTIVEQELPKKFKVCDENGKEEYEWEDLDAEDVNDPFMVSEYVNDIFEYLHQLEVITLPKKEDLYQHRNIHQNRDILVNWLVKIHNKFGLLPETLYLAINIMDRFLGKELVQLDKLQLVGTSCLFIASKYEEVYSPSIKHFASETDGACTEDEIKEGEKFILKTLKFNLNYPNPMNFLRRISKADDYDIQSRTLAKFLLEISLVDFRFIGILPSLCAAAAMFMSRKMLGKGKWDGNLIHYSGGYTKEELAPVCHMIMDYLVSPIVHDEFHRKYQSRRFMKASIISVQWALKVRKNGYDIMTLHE
T3 sequence (P20486 whole entry partner): as the sequence (P20486 whole entry partner) above

Row | Molecule | kcat/KM, Clb2 [relative units]
9 | B1 | 0.018
10 | B2 | 0.009
11 | B3 | 9.072
12 | B4 | 0.049

The molecules below were run against T4, Clb5-Cdk1 (Saccharomyces cerevisiae, UniProt P00546+P30283) in the same assay as above. Conditions: Table S2; purified protein substrate; relative values, not divided by [S].
T4 construct: We purified the four cyclin-Cdk1 complexes from yeast; made in house; host or cells: S. cerevisiae strain DOM0076 (gal-CLB5-TAP, sic1 deleted); Cks1 from bacteria
Format: biochemical
Protocol: as §1, §2, §3, §4

T4 sequence (P00546 2-298 limits assumed): as the sequence (P00546 2-298 limits assumed) above
T4 sequence (P30283 whole entry partner): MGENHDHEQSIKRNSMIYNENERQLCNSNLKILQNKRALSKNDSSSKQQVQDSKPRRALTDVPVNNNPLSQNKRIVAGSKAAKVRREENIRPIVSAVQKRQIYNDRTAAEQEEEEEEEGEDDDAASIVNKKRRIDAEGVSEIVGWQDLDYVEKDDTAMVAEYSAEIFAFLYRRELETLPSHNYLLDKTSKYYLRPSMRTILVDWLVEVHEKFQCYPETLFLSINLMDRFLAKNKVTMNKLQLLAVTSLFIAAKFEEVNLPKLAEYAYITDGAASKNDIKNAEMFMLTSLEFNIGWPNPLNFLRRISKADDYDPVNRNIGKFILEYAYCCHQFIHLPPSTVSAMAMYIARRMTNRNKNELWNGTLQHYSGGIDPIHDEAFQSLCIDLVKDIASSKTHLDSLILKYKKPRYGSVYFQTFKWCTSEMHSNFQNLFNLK
T4 sequence (P20486 whole entry partner): as the sequence (P20486 whole entry partner) above

Row | Molecule | kcat/KM, Clb5 [relative units]
13 | B1 | 0.405
14 | B2 | 0.029
15 | B3 | 1.724
16 | B4 | 0.008

Each molecule was assayed against T5, Clb3hpm-Cdk1 (Saccharomyces cerevisiae, UniProt P00546+P24870) in the same assay as above. Conditions: Table S2; purified protein substrate; relative values, not divided by [S].
T5 construct: made in house; host or cells: S. cerevisiae strain MK0168 (gal-CLB3hpm-TAP, sic1 deleted); Cks1 from bacteria
Format: biochemical
Protocol: (§5) For the quantitative phosphorylation assays of T33-Sic1ΔC constructs and recombinant substrates, substrate concentrations were kept in the range of 0.5–2 μM (in the linear [S] versus v0 range, several-fold below the estimated KM value), and initial velocity conditions were defined as an initial substrate turnover of up to 10% of the total turnover. For the steady-state peptide kinetics of the Histone peptide PKTPKKAKKL, a similar assay composition was used as for protein substrates, and phosphocellulose paper was used for the quantification of the phosphorylated substrate.
(§6) Supplemental Experimental Procedures
(§7) Plasmid constructs and yeast strains
(§8) For tandem affinity purification (TAP) of cyclin-Cdk1 complexes, the cyclin genes were cloned into the 2 micron vector pRSAB1234 containing a GAL1 promoter and the C-terminal TAP-tag. To purify different 6His-T33-Sic1ΔC forms for kinase assays, the C-terminally truncated fragment of Sic1 (with a stop codon inserted after amino acid 215) was cloned into the NheI/BamHI site of the bacterial expression vector pET28a (Invitrogen). Mutagenesis of cyclins or substrates was performed using single-stranded pRSAB1234 or pET28a vector constructs as templates. The triple mutants in the hydrophobic patch (hpm) of Clb5 and Clb2 were described previously (Loog and Morgan, 2005), and the hpm of Clb3 (Phe-201, Leu-205 and Trp-208 mutated to alanines) was designed according to sequence homology with other B-type cyclins. In T33-Sic1ΔC constructs, the other Cdk sites bearing the consensus motif S/T-P were mutated to Ala-Ala in order to prevent any possible (pseudo)substrate competition. The other Cdk substrates were cloned as full-length forms into bacterial expression vectors pET28a or pGEX-4T-1. Cdh1 was purified using the baculovirus system and was a kind gift from Monica Rodrigo-Brenni (UCSF). […]
The […]
(§9) pRSAB1234 analogously to the cyclin-Cdk1 complexes. For C-terminal tagging of cyclin genes in their chromosomal loci, the Pringle method was applied (Longtine et al., 1998). Lists of plasmid […]
(§10) The TAP method was applied for purification of cyclin-Cdk1 complexes and Swe1 as described previously for Clb5-TAP-Cdk1 and Clb2-TAP-Cdk1 (Puig et al., 2001; Ubersax et al., 2003). […]
as §2, with “tagged” for “similar substrate specificity as the Cln2-Cdk1 version purified using a TAP-tag. N-terminally 6His-tagged”
as §3
(§11) About 1-10 nM of purified kinase complex was used, reaction aliquots were taken at two or more […]

Row | Molecule | kcat/KM, Clb3hpm [relative units]
17 | B1 | 0.028
18 | B2 | 0.002
19 | B3 | 1.144
20 | B4 | 0.005

What follows are molecules tested against T6, Clb5hpm-Cdk1 (Saccharomyces cerevisiae, UniProt P00546) in the same assay as above. Conditions: Table S2; purified protein substrate; relative values, not divided by [S].
T6 construct: made in house; host or cells: S. cerevisiae strain DOM0963 (gal-CLB5hpm-TAP, sic1 deleted); Cks1 from bacteria
Format: biochemical
Protocol: as §5, §6, §7, §8
The […]
as §9, §10
as §2, with “tagged” for “similar substrate specificity as the Cln2-Cdk1 version purified using a TAP-tag. N-terminally 6His-tagged”
as §3, §11

T6 sequence (P00546 2-298 limits assumed): as the sequence (P00546 2-298 limits assumed) above

Row | Molecule | kcat/KM, Clb5hpm [relative units]
21 | B1 | 0.012
22 | B2 | 0.001
23 | B3 | 0.428
24 | B4 | 0.002

The molecules below were run against T7, Clb2hpm-Cdk1 (Saccharomyces cerevisiae, UniProt P00546) in the same assay as above. Conditions: Table S2; purified protein substrate; relative values, not divided by [S].
T7 construct: made in house; host or cells: S. cerevisiae strain DOM0964 (gal-CLB2hpm-TAP, sic1 deleted); Cks1 from bacteria
Format: biochemical
Protocol: as §5, §6, §7, §8
The […]
as §9, §10
as §2, with “tagged” for “similar substrate specificity as the Cln2-Cdk1 version purified using a TAP-tag. N-terminally 6His-tagged”
as §3, §11

T7 sequence (P00546 2-298 limits assumed): as above

Row | Molecule | kcat/KM, Clb2hpm [relative units]
25 | B1 | 0.067
26 | B2 | 0.005
27 | B3 | 6.351
28 | B4 | 0.035
